From US20260242478A1 (published 2026)
Where no end group is shown, it is not given here.

B1: Phage-61 clonal phage peptide (peptide, not shown: large carriers)
peptide: MVSCPTTMWNRCFN
B2: Phage-52 clonal phage peptide (peptide, not shown: large carriers)
peptide: MDWCPINLWDECFS
modifications: cysteine pairing not given here; also: displayed on phage by fusion to pIII, linker and pIII sequence not given here
B3: Phage-54 clonal phage peptide (peptide, not shown: large carriers)
peptide: MNWCPRDMWYQCFN
modifications: cysteine pairing not given here; also: displayed on phage by fusion to pIII, linker and pIII sequence not given here
B4: Phage-179 (peptide)
peptide: MDWCPWILWNECFN
B5: Phage-193 (peptide)
peptide: MDWCPMDMWVNCFN
B6: Phage-65 clonal phage peptide (peptide, not shown: large carriers)
peptide: MDWCPMYLWNECFN
B7: Phage-176 (peptide)
peptide: MDWCPSDLWHECFH
B8: Phage-188 (peptide)
peptide: MDWCPSYLWDQCFF
B9: Phage-60 clonal phage peptide (peptide, not shown: large carriers)
peptide: MDWCPRTLWYLCFN
B10: Phage-181 (peptide)
peptide: MYWCPRDLWDVCFN
B11: Phage-177 (peptide)
peptide: MDWCPVSLWDHCFN
B12: Phage-172 (peptide)
peptide: MDWCPPYLWYECFA
B13: Phage-108 (peptide)
peptide: MDWCPRALWHECFT
B14: Phage-55 clonal phage peptide (peptide, not shown: large carriers)
peptide: QDWCPRHMWSFCFH
modifications: cysteine pairing not given here; also: displayed on phage by fusion to pIII, linker and pIII sequence not given here
B15: Phage-175 (peptide)
peptide: MDWCPAYLWAECFS
B16: Phage-178 (peptide)
peptide: LDWCPRDLWHVCFF
B17: Phage-194 (peptide)
peptide: MDWCPSDMWHECYA
B18: Phage-186 (peptide)
peptide: QDWCPTYLWHHCFN
B19: Phage-56 clonal phage peptide (peptide, not shown: large carriers)
peptide: MHWCPMDQWSNCFN
B20: Phage-58 clonal phage peptide (peptide, not shown: large carriers)
peptide: MHWCPIDRWADCFN
B21: Phage-105 (peptide)
peptide: MDWCPRYLWNVCFN
B22: Phage-174 (peptide)
peptide: MDWCPKHLWNECFN
B23: Phage-101 (peptide)
peptide: MDWCPRSLWHYCFA
B24: Phage-53 clonal phage peptide (peptide, not shown: large carriers)
peptide: MDWCPMHLWNKCFN
modifications: cysteine pairing not given here; also: displayed on phage by fusion to pIII, linker and pIII sequence not given here
B25: Phage-190 (peptide)
peptide: MDWCPRDMWAECFF
B26: Phage-102 (peptide)
peptide: MDWCPRYLWAECFY
B27: Phage-103 (peptide)
peptide: MDWCPRDLWHECFN
B28: Phage-106 (peptide)
peptide: MDWCPIYLWDECFN
B29: Phage-107 (peptide)
peptide: MDWCPRDLWAECFN
B30: Phage-173 (peptide)
peptide: MDWCPMNLWSECFN
B31: Phage-189 (peptide)
peptide: VDWCPRYLWHVCYN
B32: Phage-191 (peptide)
peptide: MDWCPRDMWYECFN
B33: Phage-104 (peptide)
peptide: MDWCPRDLWDLCFF
B34: Phage-59 clonal phage peptide (peptide, not shown: large carriers)
peptide: MDWCPRDSWHLCFA
B35: Phage-389 (peptide)
peptide: MDWCPSDMWANCFF
B36: Phage-57 clonal phage peptide (peptide, not shown: large carriers)
peptide: MDWCPRHRWVDCFY
B37: Phage-62 clonal phage peptide (peptide, not shown: large carriers)
peptide: MDWCPSYLWNECFF
B38: Phage-278 (peptide)
peptide: MDWCPRSIWYLCFN
modifications: cysteine pairing not given here; also: displayed on phage as fusion to pIII, fusion limits and linker not given here
notes: Clonal phage of the Peptide-9 library, tested as crude phage supernatant; not shown: pIII of the bacteriophage
B39: Phage-265 (peptide)
peptide: MDWCPRFMWDLCFA
modifications: cysteine pairing not given here; also: displayed on phage as pIII fusion, fusion limits and linker not given here
notes: as for B38
B40: Phage-196 (peptide)
peptide: MDWCPRYMWYQCFS
B41: Phage-180 (peptide)
peptide: MHWCPRYLWDECFN
B42: Phage-195 (peptide)
peptide: MDWCPKHMWFMCFN
B43: Phage-192 (peptide)
peptide: DVWCPKYMWSLCFN
B44: Phage-182 (peptide)
peptide: MHWCPRSLWNECYF
B45: Phage-184 (peptide)
peptide: MHWCPINLWNECFS
B46: Phage-183 (peptide)
peptide: IDWCPRDLWALCFN
B47: Phage-187 (peptide)
peptide: IGKLTLCLNADLVI

Columns and labels:
[1] = biological target: T1, Anti-CD28 scFv (VH - linker 1 - VL) (biotinylated (site not stated)); test: phage binding ELISA on captured anti-CD28 scFv; wells pre-incubated with soluble CD28 protein (competitor)
T1 sequence (scFv, as listed by the source): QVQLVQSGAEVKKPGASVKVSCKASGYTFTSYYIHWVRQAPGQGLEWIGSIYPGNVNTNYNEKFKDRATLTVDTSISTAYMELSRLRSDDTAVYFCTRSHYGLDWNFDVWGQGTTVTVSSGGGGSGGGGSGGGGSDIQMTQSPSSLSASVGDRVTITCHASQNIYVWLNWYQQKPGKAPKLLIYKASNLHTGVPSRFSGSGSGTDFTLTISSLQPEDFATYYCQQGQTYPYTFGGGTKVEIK

[2] = biological target: T1, Anti-CD28 scFv (VH - linker 1 - VL); test: phage binding ELISA; biotinylated anti-CD28 scFv on neutravidin plate, clonal phage supernatant, anti-M13 HRP detection
Experimental: (§1) Clonal phage were harvested as crude supernatants and screened via standard enzyme linked immunosorbent assays (ELISAs). […] Prior to the addition of clonal phage, wells were incubated with blocking buffer and CD28 soluble protein or blocking buffer alone. Without washing or aspirating, clonal phage supernatants were then added to the wells and incubated for a short time. Wells were then washed followed by detection of bound phage using a horse radish peroxidase conjugated anti-M13 antibody.

[3] = biological target: T2, anti-CD28 scFv (VH - linker 1 - VL) (biotinylated (site not stated)); test: phage ELISA; biotinylated anti-CD28 scFv on neutravidin plate, clonal phage supernatant, anti-M13 HRP detection;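 note: before phage addition, wells were pre-incubated with blocking buffer plus soluble CD28 protein, or blocking buffer only, with no wash in between, signal reflects phage remaining bound after washing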
T2 sequence (scFv, as listed by the source): as above

[4] = biological target: T2, anti-CD28 scFv (VH - linker 1 - VL); test: phage ELISA as above, wells pre-incubated with soluble CD28 as competitor
Experimental: as §1

[5] = biological target: T3, anti-CD28 scFv (VH - linker 1 - VL) (biotinylated (site not given)); test: phage ELISA as above; wells pre-incubated with soluble CD28 as competitor;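 note: crude clonal phage supernatants tested, with bound phage detected by HRP-conjugated anti-M13 antibody, and reference wells given blocking buffer without CD28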
T3 construct: Biotinylated scFv captured on neutravidin coated plates in the panning ELISA
T3 sequence (scFv, as listed by the source): as above

[6] = biological target: T4, Anti-CD28 scFv (VH - linker 1 - VL) (biotinylated (site not stated)); test: phage ELISA as above, wells pre-incubated with soluble CD28 (competitor);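 note: ELISA of crude clonal phage supernatants added to wells pre-treated with soluble CD28 in blocking buffer, bound phage read out with HRP-conjugated anti-M13 antibody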
T4 construct: Biotinylated scFv captured on neutravidin coated plates in the panning ELISA
T4 sequence (scFv, as listed by the source): as above

[7] = biological target: Anti-CD28 scFv (VH - linker 1 - VL) (biotinylated (site not given)); test: phage binding ELISA on anti-CD28 scFv plate; wells pre-incubated with soluble CD28 as competitor;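 note: clonal phage supernatants tested, bound phage read out with an HRP-linked anti-M13 antibody, reference wells received blocking buffer lacking CD28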
Sequence of Anti-CD28 scFv (VH - linker 1 - VL) (biotinylated (site not given)) (scFv, as listed by the source): as above

Binder | CD28 scFv signal [3] | CD28 scFv signal in presence of CD28 [4] | further results
B1 |  |  | CD28 scFv signal in presence of CD28 [1]: 0.072; CD28 scFv signal [2]: 1.33
B2 |  |  | CD28 scFv signal in presence of CD28 [1]: 0.096; CD28 scFv signal [2]: 1.5
B3 |  |  | CD28 scFv signal in presence of CD28 [1]: 0.177; CD28 scFv signal [2]: 1.95
B4 | 0.581 | 0.137 | 
B5 | 2.52 | 0.277 | 
B6 |  |  | CD28 scFv signal in presence of CD28 [1]: 0.471; CD28 scFv signal [2]: 2.61
B7 | 0.629 | 0.164 | 
B8 | 0.083 | 0.079 | 
B9 |  |  | CD28 scFv signal in presence of CD28 [1]: 1.2; CD28 scFv signal [2]: 2.59
B10 | 0.512 | 0.102 | 
B11 | 0.616 | 0.1 | 
B12 | 0.692 | 0.094 | 
B13 |  |  | CD28 scFv signal in presence of CD28 [5]: 0.191
B14 |  |  | CD28 scFv signal in presence of CD28 [1]: 0.081; CD28 scFv signal [2]: 0.074
B15 | 0.64 | 0.12 | 
B16 | 0.61 | 0.105 | 
B17 | 2.47 | 0.2 | 
B18 | 0.123 | 0.122 | 
B19 |  |  | CD28 scFv signal in presence of CD28 [1]: 0.084; CD28 scFv signal [2]: 0.515
B20 |  |  | CD28 scFv signal in presence of CD28 [1]: 0.077; CD28 scFv signal [2]: 0.287
B21 |  |  | CD28 scFv signal in presence of CD28 [5]: 0.57
B22 | 0.663 | 0.105 | 
B23 |  |  | CD28 scFv signal in presence of CD28 [5]: 0.338
B24 |  |  | CD28 scFv signal in presence of CD28 [1]: 0.122; CD28 scFv signal [2]: 1.04

Binder | CD28 scFv signal [3] | CD28 scFv signal in presence of CD28 [4] | further results
B25 | 2.69 | 2.26 | 
B26 |  |  | CD28 scFv signal in presence of CD28 [5]: 0.354
B27 |  |  | CD28 scFv signal in presence of CD28 [5]: 0.218
B28 |  |  | CD28 scFv signal in presence of CD28 [5]: 0.215
B29 |  |  | CD28 scFv signal in presence of CD28 [5]: 0.207
B30 | 0.67 | 0.124 | 
B31 | 0.065 | 0.061 | 
B32 | 2.56 | 0.235 | 
B33 |  |  | CD28 scFv signal in presence of CD28 [5]: 0.156
B34 |  |  | CD28 scFv signal in presence of CD28 [1]: 0.147; CD28 scFv signal [2]: 2.45
B35 |  |  | CD28 scFv signal in presence of CD28 [6]: 0.316
B36 |  |  | CD28 scFv signal in presence of CD28 [1]: 0.11; CD28 scFv signal [2]: 0.478
B37 |  |  | CD28 scFv signal in presence of CD28 [1]: 0.133; CD28 scFv signal [2]: 2
B38 |  |  | CD28 scFv signal in presence of CD28 [7]: 1.34
B39 |  |  | CD28 scFv signal in presence of CD28 [7]: 0.725
B40 | 2.36 | 0.357 | 
B41 | 0.55 | 0.127 | 
B42 | 2.4 | 0.372 | 
B43 | 2.53 | 0.418 | 
B44 | 0.456 | 0.115 | 
B45 | 0.316 | 0.098 | 
B46 | 0.37 | 0.129 | 
B47 | 0.116 | 0.1 | 
